Assay results from patent US20090291088A1, “THERAPEUTIC COMBINATIONS OF ANTI-IGF-1R ANTIBODIES AND OTHER COMPOUNDS” (Biogen Idec MA Inc., priority 2008, published 2009).

B1: M14-C03: anti-IGF-1R antibody, allosteric blocker of IGF-1 and IGF-2 (antibody, V domains shown)
VH: EVQLLESGGGLVQPGGSLRLSCAASGFTFSKYMMSWVRQAPGKGLEWVSYISPSGGLTWYADSVKGRFTISRDNSKNTLYLQMNSLRAEDTAVYYCARDGARGYGMDVWGQGTTVTVSS
VL: DIQMTQSPATLSLSPGERATLSCRASQSVSSYLAWYQQKPGQAPRLLIYDASNRATGIPARFSGSGSGTDFTLTISSLEPEDFAVYYCQQRSNWPPEVTFGPGTKVDIK
modifications: Antibody variable heavy chain sequence; Antibody variable light chain sequence
B2: 20C8.3B8: murine anti-human IGF-1R monoclonal antibody from hybridoma; VH SEQ ID NO:43, VL SEQ ID NO:103 (antibody, V domains shown)
VH: DVQLQESGPDLVKPSQSLSLTCTVTGYSITSGYSWHWIRQFPGNKLEWMGYIHYSGGTNYNPSLKSRISITRDTSKNQFFLQLNSVTTEDTATYYCARSGYGYRSAYYFDYWGQGTTVTVSS
VL: DIVLTQSPASLAVSLGQRATISCRASKSVSTSAYSYMHWYQQKPGQPPKLLIYLASNLESGVPARFSGSGSGTDFTLNIHPVEEEDAATYYCQHSRELPYTFGGGTKLEIK
modifications: Antibody variable heavy chain sequence; Antibody variable light chain sequence
B3: 20D8.24B11: murine anti-human IGF-1R monoclonal antibody from hybridoma; VH SEQ ID NO:53, VL SEQ ID NO:103 (antibody, V domains shown)
VH: DVQLQESGPDLVKPSQSLSLTCTVTGYSITSGYSWHWIRQFPGNKLEWMGYIHYSGGTNYNPSLKSRISITRDTSKNQFFLQLNSVTTEDTATYYCARSGYGYRSAYYFDYWGQGTTLTVSS
VL: DIVLTQSPASLAVSLGQRATISCRASKSVSTSAYSYMHWYQQKPGQPPKLLIYLASNLESGVPARFSGSGSGTDFTLNIHPVEEEDAATYYCQHSRELPYTFGGGTKLEIK
modifications: Antibody variable heavy chain sequence; Antibody variable light chain sequence

Assays:
hIGF-1R(1-462)-Fc = target: T1, hIGF-1R(1-462)-Fc (Homo sapiens, UniProt P08069); assay: SPR binding of immobilized antibodies to truncated hIGF-1R(1-462)-Fc versus hIGF-1R(1-903)Fc; details: surface immobilized antibody
T1 construct: host or cells: CHO
Source text: Next, we investigated whether M13-C06 binds the putative ligand binding domains of IGF-1R (L1-CR-L2). We generated a truncated version of the receptor containing the N-terminal three domains (residues 1-462) fused to an IgG1-Fc and compared its ability to bind M13-C06, M14-C03, and M14-G11 to that of the full-length receptor ectodomain construct, hIGF-1R-Fc, using surface plasmon resonance (SPR).

hIGF-1R-Fc = target: T2, hIGF-1R-Fc (Homo sapiens, UniProt P08069); assay: Antibody cross-blocking ELISA with biotinylated M13-C06 or M14-G11; assay type: binding
T2 construct: (3) human IGF-1R(1-903)-Fc (hIGF-1R-Fc, Biogen Idec); host or cells: CHO
Protocol: The ability of various antibodies to block M13-C06 or M14-G11 was determined using biotinylated version of both antibodies and hIGF-1R-Fc. Briefly, 50 μL of 2 μg/mL hIGF-1R-Fc in 1×PBS were coated per well of a 96-well clear MaxiSorp plate (Nunc) for 2 hours at room temperature (RT, no shaking). Plates were washed with 1×PBS and blocked overnight at 2-8° C. using a PBS/1% BSA solution. Plates were washed and incubated with a 100 μL mixture of biotinylated M13-C06 or biotinylated M14-G11 (80 ng/mL) and inhibitor antibody for 1 hour at RT. Inhibitor antibodies were serially diluted (5-fold dilutions) from 40 μg/mL to 3 ng/mL. M13-C06 and M14-G11 were biotinylated using EZ-Link Sulfo-NHS-LC-Biotin according to protocol provided by the manufacturer (Pierce Cat. No. 21335). A control was also performed by serial dilution of a non-IGF-1R specific IgG4 isotype control antibody with biotinylated M13-C06 or biotinylated M14-G11. Plates were washed and shaken for 1 hour at RT with 100 μL/well streptavidin-HRP (1:4000 dilution into blocking buffer, Southern Biotech Cat. No. 7100-05). Plates were washed and 100 μL/well SureBlue Reserve TMB Microwell Peroxidase Substrate (KPL, Cat. No. 53-00-01) was added to the wells. Detection of the presence of biotinylated M13-C06 or M14-G11 was performed by reading the absorbance at 650 nm every 5 minutes using a Wallac 1420-041 Multilabel Counter plate reader.

[1] = target: T3, recombinant human IGF-1R ectodomain (Homo sapiens, UniProt P08069); assay: ELISA binding of Fabs and murine MAbs to recombinant soluble IGF-1R (IGF-1R-His, IGF-1R-Fc); details: murine monoclonal antibodies; read-out: Binding (EC50nM) Protein ELISA
T3 construct: denoted hIGF-1R(1-902)-His10, was purchased from R&D systems (Cat. No. 305-GR-050); His or Fc (two alternative proteins, not both on one chain); purchased R & D Systems 305-GR
Protocol: Recombinant human IGF-1R ectodomain was used to screen a human naïve phagemid Fab library containing 3.5×10^10 unique clones (Hoet, R. M., et al. Nat. Biotechnol. 23(3):344-8 (2005), (“Hoet et al.”) which is incorporated herein by reference in its entirety). Two distinct panning arms were followed using biotinylated IGF1R-his and IGF1R-Fc protein. Proteins were captured on steptavidin-coated magnetic beads prior to incubation with the phage library. In the case of IGF1R-Fc, a biotinylated anti-Fc antibody was captured on the magnetic beads, followed by captured of the Fc fusion protein. […] Sequence analysis of all clones determined 12 clones were isolated in both arms of the panning strategy. […]
ELISA assays were performed to determine specific binding of the Fab fragment antibodies to soluble IGF-1R over the insulin receptor. […] Bound antibody was detected with HRPO labeled goat α-human kappa (Southern Biotechnology Associates, #2060-05) for Fabs and goat α-mouse IgG Fcγ (Jackson Immunoresearch, # 115-035-164) for murine MAbs. Color development was stopped by addition of 4NH2SO4 and optical density is measured at 450 nm using a Molecular Devices plate reader and binding curves are generated.

Panc-1 = assay: IGF driven tumor cell growth, CELL TITER-GLO, Panc-1; assay type: cell-based, human; details: pancreatic cancer cell
Protocol: (§1) NCI-H23, Calu-6, Colo-205, Panc-1, BxPC-3 (ATCC) tumor lines were purchased from ATCC. Cell lines were grown in complete growth medium containing RPMI-1640 (ATCC), 10% fetal bovine serum (Irvine Scientific Inc.) and 50 μg/ml of Gentamycin (Gibco, Invitrogen). Trypsin-EDTA solution (Sigma) was used for removal of adherent cells from culture vessels. Phosphate buffered saline, pH 7.2, was from MediaTech Inc The 96-well clear bottom plates for luminescent assay was purchased from Wallac Inc.
(§2) Cells grown to 80% monolayers were, trypsinized, washed, resuspended and plated into 96-well plates in 200 μl of 2% growth medium at 8×10^3 cells/well for NCI-H23 and Colo-205 cells; and 5×10^3 cells/well for Calu-6, Panc-1 and BxPC-3 cells. After 24 hours, the culture medium was replaced with 100 μl of serum free medium (SFM), and 50 μl of serially diluted antibodies at 4× concentration was added. […] All treatments were done in triplicates. Cell growth was measured using the CELL TITER-GLO™ Luminescent Cell Viability Assay (Promega, Madison, Wis.). The 1:1 mixture of reagent and SFM was added at 200 μl/well. Luminescence was detected on Wallac (Boston, Mass.) plate reader.
(§3) The ability of the selected murine antibodies to inhibit IGF/IGF-1R dependent in vitro growth of several human tumor lines (Lung, H-23, Calu-6; Pancreas, BxPc-3, Panc-1, MiaPaCa and Colon Colo205) was measured by a proliferation assay described in Example 13.

Colo-205 = assay: IGF driven tumor cell growth, CELL TITER-GLO, Colo-205; assay type: cell-based, human; details: colon cancer cell
Protocol: as §1, §2, §3

Row | Molecule | binding to truncated hIGF-1R(1-462)-Fc compared with full-length hIGF-1R-Fc (hIGF-1R(1-462)-Fc) | M13-C06 cross-blocking (hIGF-1R-Fc) | EC50 [1] | Proliferation of Tumor Cells Panc-1 (Panc-1) | Proliferation of Tumor Cells Colo-205 (Colo-205)
1 | B1 | dramatically reduced | +++++ (+++++ = antibody binding competition relative to itself (90-100%)) |  |  | 
2 | B2 |  |  | 0.085 nM | +++ (>30%@0.1 μg/ml) | +++ (>30%@0.1 μg/ml)
3 | B3 |  |  | 0.042 nM | +++ (>30%@0.1 μg/ml) | +++ (>30%@0.1 μg/ml)
